Target: actin filaments (actin from Gallus gallus skeletal muscle) (Gallus gallus (chicken)) (UniProt P68139)
Experiment: co-sedimentation; 4 µM EGFP–SFM peptide with 0–200 µM actin filaments in F buffer, 1 h at room temperature, 100,000g for 30 min; pellet read by anti-EGFP western blot; one-site specific binding fit; apparent

Substance | Kd
EGFP-tagged USP54 SFM peptide, wild type | 6 µM
EGFP–Lifeact (peptide) | 2 µM
